Data: patent US20070161783A1 (published 2007)
Each block holds one binder with its values, some of them ahead of it.

Experiments:
[1] = biological target: H3.77_L3 I332E/H268E Hybrid
[2] = biological target: H3.77_L3 S239D/I332E/A330Y Hybrid
[3] = biological target: H3.77_L3 S239D/H268E Hybrid
[4] = biological target: H3.77_L3 S239D/I332E Hybrid
[5] = biological target: H3.77_L3 I332E/H268E/G236A Hybrid
[6] = biological target: H3.77_L3 I332E/G236A Hybrid
[7] = biological target: H3.77_L3 S239D/I332E/G236A Hybrid
FcγRIIIa (158V form) = FcγRIIIa (158V form) (human, UniProt P08637 17-208); assay: AlphaScreen competition
[8] = biological target: T1, extracellular domain of Ep-CAM (UniProt P16422 24-265, DIGylated (sites not given)); assay: AlphaScreen competition
T1 chain: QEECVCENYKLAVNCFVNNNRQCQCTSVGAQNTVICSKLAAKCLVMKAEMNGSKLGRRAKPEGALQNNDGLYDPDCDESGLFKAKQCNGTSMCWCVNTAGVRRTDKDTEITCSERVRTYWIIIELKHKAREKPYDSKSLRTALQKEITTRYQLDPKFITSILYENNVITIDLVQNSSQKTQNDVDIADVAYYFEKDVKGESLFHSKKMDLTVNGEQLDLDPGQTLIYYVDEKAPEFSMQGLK

H2L1 = assay: SPR
H3L4 = assay: SPR
H1L3 = assay: SPR
H3L2 = assay: SPR
H3L1 = assay: SPR
H4L1 = assay: SPR
H6L4 = assay: SPR
H6L3 = assay: SPR
H1L1 = assay: SPR
H4L3 = assay: SPR
H4L4 = assay: SPR
H3L3 = assay: SPR
H2L3 = assay: SPR
H2L4 = assay: SPR
H1L4 = assay: SPR

Chain of FcγRIIIa (158V form) (P08637 17-208 F176V): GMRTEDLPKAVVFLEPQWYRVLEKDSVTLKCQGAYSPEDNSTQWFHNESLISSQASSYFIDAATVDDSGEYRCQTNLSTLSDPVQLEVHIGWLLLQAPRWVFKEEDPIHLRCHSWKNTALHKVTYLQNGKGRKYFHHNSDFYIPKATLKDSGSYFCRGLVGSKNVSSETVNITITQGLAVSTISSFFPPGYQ

Kd [1]: 117 nM | Kd [2]: 144 nM | Kd [3]: 81.5 nM | Kd [4]: 142 nM | Kd [5]: 154 nM | Kd [6]: 557 nM | Kd (H3.77_L3 WT Hybrid): 635 nM | Kd [7]: 146 nM
B1: FcgRIIb (receptor)
chain: TPAAPPKAVLKLEPQWINVLQEDSVTLTCRGTHSPESDSIQWFHNGNLIPTHTQPSYRFKANNNDSGEYTCQTGQTSLSDPVHLTVLSEWLVLQTPHLEFQEGETIVLRCHSWKDKPLVKVTFFQNGKSKKFSRSDPNFSIPQANHSHSGDYHCTGNIGYTLYSSKPVTITVQAP

IC50 (FcγRIIIa (158V form)): 32.7 nM | IC50 [8]: 333 nM
B2: 17-1A H0 (antibody)
chain: QVQLQQSGAELVRPGTSVKVSCKASGYAFTNYLIEWVKQRPGQGLEWIGVINPGSGGTNYNEKFKGKATLTADKSSSTAYMQLSSLTSDDSAVYFCARDGPWFAYWGQGTLVTVSA

Kd (H2L1): 75.4 nM | Kd (H3L4): 335 nM | Kd (H1L3): 54.1 nM | Kd (H3L2): 615 nM | Kd (H3L1): 385 nM | Kd (H4L1): 6600 nM | Kd (H6L4): 5200 nM | Kd (H6L3): 4800 nM | Kd (H1L1): 77.8 nM | Kd (H4L3): 1310 nM | Kd (H4L4): 3000 nM | Kd (H3L3): 292 nM | Kd (H2L3): 63 nM | Kd (H2L4): 66.6 nM | Kd (H1L4): 58.9 nM
B3: EpCAM (Fc fusion)
chain: QEECVCENYKLAVNCFVNNNRQCQCTSVGAQNTVICSKLAAKCLVMKAEMNGSKLGRRAKPEGALQNNDGLYDPDCDESGLFKAKQCNGTSMCWCVNTAGVRRTDKDTEITCSERVRTYWIIIELKHKAREKPYDSKSLRTALQKEITTRYQLDPKFITSILYENNVITIDLVQNSSQKTQNDVDIADVAYYFEKDVKGESLFHSKKMDLTVNGEQLDLDPGQTLIYYVDEKAPEFSMQGLK

Kd [1]: 86.1 nM | Kd [2]: 88.9 nM | Kd [3]: 42.7 nM | Kd [4]: 78.9 nM | Kd [6]: 54.4 nM | Kd (H3.77_L3 WT Hybrid): 413 nM | Kd [7]: 13.7 nM
B4: R131 FcgRIIa (receptor)
chain: QAAAPPKAVLKLEPPWINVLQEDSVTLTCQGARSPESDSIQWFHNGNLIPTHTQPSYRFKANNNDSGEYTCQTGQTSLSDPVHLTVLSEWLVLQTPHLEFQEGETIMLRCHSWKDKPLVKVTFFQNGKSQKFSRLDPTFSIPQANHSHSGDYHCTGNIGYTLFSSKPVTITVQVPSMGSSSPMG
